Reference: IntAct's records for PubMed 31515488

B1: Ensconsin (Homo sapiens), Q14244 (parent)
chain: MAELGAGGDGHRGGDGAVRSETAPDSYKVQDKKNASSRPASAISGQNNNHSGNKPDPPPVLRVDDRQRLARERREEREKQLAAREIVWLEREERARQHYEKHLEERKKRLEEQRQKEERRRAAVEEKRRQRLEEDKERHEAVVRRTMERSQKPKQKHNRWSWGGSLHGSPSIHSADPDRRSVSTMNLSKYVDPVISKRLSSSSATLLNSPDRARRLQLSPWESSVVNRLLTPTHSFLARSKSTAALSGEAASCSPIIMPYKAAHSRNSMDRPKLFVTPPEGSSRRRIIHGTASYKKERERENVLFLTSGTRRAVSPSNPKARQPARSRLWLPSKSLPHLPGTPRPTSSLPPGSVKAAPAQVRPPSPGNIRPVKREVKVEPEKKDPEKEPQKVANEPSLKGRAPLVKVEEATVEERTPAEPEVGPAAPAMAPAPASAPAPASAPAPAPVPTPAMVSAPSSTVNASASVKTSAGTTDPEEATRLLAEKRRLAREQREKEERERREQEELERQKREELAQRVAEERTTRREEESRRLEAEQAREKEEQLQRQAEERALREREEAERAQRQKEEEARVREEAERVRQEREKHFQREEQERLERKKRLEEIMKRTRRTEATDKKTSDQRNGDIAKGALTGGTEVSALPCTTNAPGNGKPVGSPHVVTSHQSKVTVESTPDLEKQPNENGVSVQNENFEEIINLPIGSKPSRLDVTNSESPEIPLNPILAFDDEGTLGPLPQVDGVQTQQTAEVI
B2: Ornithine decarboxylase antizyme 3 (Homo sapiens), Q9UMX2 (parent)
chain: MPCKRCRPSVYSLSYIKRGKTRNYLYPIWSPYAYYLYCYKYRITLREKMLPRCYKSITYKEEEDLTLQPRSCLQCSESLVGLQEGKSTEQGNHDQLKELYSAGNLTVLATDPLLHQDPVQLDFHFRLTSQTSAHWHGLLCDRRLFLDIPYQALDQGNRESLTATLEYVEEKTNVDSVFVNFQNDRNDRGALLRAFSYMGFEVVRPDHPALPPLDNVIFMVYPLERDVGHLPSEPP
partner: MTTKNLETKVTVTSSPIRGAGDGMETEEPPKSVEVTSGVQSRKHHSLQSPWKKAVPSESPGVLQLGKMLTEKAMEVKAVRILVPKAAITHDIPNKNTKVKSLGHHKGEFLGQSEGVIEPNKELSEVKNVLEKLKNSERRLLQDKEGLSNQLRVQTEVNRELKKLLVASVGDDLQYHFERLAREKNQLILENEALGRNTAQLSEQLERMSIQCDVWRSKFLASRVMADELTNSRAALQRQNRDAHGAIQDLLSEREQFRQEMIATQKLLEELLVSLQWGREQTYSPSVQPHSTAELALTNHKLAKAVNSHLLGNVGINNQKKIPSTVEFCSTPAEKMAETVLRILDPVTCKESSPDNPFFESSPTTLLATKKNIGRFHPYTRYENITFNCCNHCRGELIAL
B3: Emerin (Homo sapiens), P50402 (parent)
chain: MDNYADLSDTELTTLLRRYNIPHGPVVGSTRRLYEKKIFEYETQRRRLSPPSSSAASSYSFSDLNSTRGDADMYDLPKKEDALLYQSKGYNDDYYEESYFTTRTYGEPESAGPSRAVRQSVTSFPDADAFHHQVHDDDLLSSSEEECKDRERPMYGRDSAYQSITHYRPVSASRSSLDLSYYPTSSSTSFMSSSSSSSSWLTRRAIRPENRAPGAGLGQDRQVPLWGQLLLFLVFVIVLFFIYHFMQAEEGNPF
partner: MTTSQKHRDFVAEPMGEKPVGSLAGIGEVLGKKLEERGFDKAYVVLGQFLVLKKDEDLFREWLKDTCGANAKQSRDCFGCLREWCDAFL
B4: KAT8 regulatory NSL complex subunit 1 (Homo sapiens), Q7Z3B3 (parent)
chain: MAAMAPALTDAAAEAHHIRFKLAPPSSTLSPGSAENNGNANILIAANGTKRKAIAAEDPSLDFRNNPTKEDLGKLQPLVASYLCSDVTSVPSKESLKLQGVFSKQTVLKSHPLLSQSYELRAELLGRQPVLEFSLENLRTMNTSGQTALPQAPVNGLAKKLTKSSTHSDHDNSTSLNGGKRALTSSALHGGEMGGSESGDLKGGMTNCTLPHRSLDVEHTTLYSNNSTANKSSVNSMEQPALQGSSRLSPGTDSSSNLGGVKLEGKKSPLSSILFSALDSDTRITALLRRQADIESRARRLQKRLQVVQAKQVERHIQHQLGGFLEKTLSKLPNLESLRPRSQLMLTRKAEAALRKAASETTTSEGLSNFLKSNSISEELERFTASGIANLRCSEQAFDSDVTDSSSGGESDIEEEELTRADPEQRHVPLRRRSEWKWAADRAAIVSRWNWLQAHVSDLEYRIRQQTDIYKQIRANKGLIVLGEVPPPEHTTDLFLPLSSEVKTDHGTDKLIESVSQPLENHGAPIIGHISESLSTKSCGALRPVNGVINTLQPVLADHIPGDSSDAEEQLHKKQRLNLVSSSSDGTCVAARTRPVLSCKKRRLVRPNSIVPLSKKVHRNSTIRPGCDVNPSCALCGSGSINTMPPEIHYEAPLLERLSQLDSCVHPVLAFPDDVPTSLHFQSMLKSQWQNKPFDKIKPPKKLSLKHRAPMPGSLPDSARKDRHKLVSSFLTTAKLSHHQTRPDRTHRQHLDDVGAVPMVERVTAPKAERLLNPPPPVHDPNHSKMRLRDHSSERSEVLKHHTDMSSSSYLAATHHPPHSPLVRQLSTSSDSPAPASSSSQVTASTSQQPVRRRRGESSFDINNIVIPMSVAATTRVEKLQYKEILTPSWREVDLQSLKGSPDEENEEIEDLSDAAFAALHAKCEEMERARWLWTTSVPPQRRGSRSYRSSDGRTTPQLGSANPSTPQPASPDVSSSHSLSEYSHGQSPRSPISPELHSAPLTPVARDTPRHLASEDTRCSTPELGLDEQSVQPWERRTFPLAHSPQAECEDQLDAQERAARCTRRTSGSKTGRETEAAPTSPPIVPLKSRHLVAAATAQRPTHR
partner: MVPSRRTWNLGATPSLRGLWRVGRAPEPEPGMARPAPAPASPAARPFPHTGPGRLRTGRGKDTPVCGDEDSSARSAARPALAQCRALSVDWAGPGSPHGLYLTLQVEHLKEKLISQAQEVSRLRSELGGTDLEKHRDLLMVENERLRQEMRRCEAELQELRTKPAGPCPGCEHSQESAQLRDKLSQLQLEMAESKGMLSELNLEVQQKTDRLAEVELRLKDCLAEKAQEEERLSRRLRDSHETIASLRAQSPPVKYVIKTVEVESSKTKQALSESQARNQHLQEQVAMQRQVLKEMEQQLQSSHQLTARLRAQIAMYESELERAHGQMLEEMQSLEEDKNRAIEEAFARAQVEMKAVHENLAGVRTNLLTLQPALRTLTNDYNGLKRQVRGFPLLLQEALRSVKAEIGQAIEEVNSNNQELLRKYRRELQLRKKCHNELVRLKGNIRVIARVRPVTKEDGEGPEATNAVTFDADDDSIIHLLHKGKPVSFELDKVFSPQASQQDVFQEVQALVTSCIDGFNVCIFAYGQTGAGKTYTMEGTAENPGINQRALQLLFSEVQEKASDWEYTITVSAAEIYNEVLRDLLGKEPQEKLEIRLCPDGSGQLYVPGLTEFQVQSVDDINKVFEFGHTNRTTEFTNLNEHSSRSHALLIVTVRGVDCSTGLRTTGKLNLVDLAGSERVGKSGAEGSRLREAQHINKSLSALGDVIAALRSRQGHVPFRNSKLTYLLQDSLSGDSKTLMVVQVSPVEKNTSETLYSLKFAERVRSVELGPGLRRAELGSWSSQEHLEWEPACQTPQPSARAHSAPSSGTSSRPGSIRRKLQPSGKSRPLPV
B5: Cyclin-dependent kinase 4 inhibitor C (Homo sapiens), P42773 (parent)
chain: MAEPWGNELASAAARGDLEQLTSLLQNNVNVNAQNGFGRTALQVMKLGNPEIARRLLLRGANPDLKDRTGFAVIHDAARAGFLDTLQTLLEFQADVNIEDNEGNLPLHLAAKEGHLRVVEFLVKHTASNVGHRNHKGDTACDLARLYGRNEVVSLMQANGAGGATNLQ
partner: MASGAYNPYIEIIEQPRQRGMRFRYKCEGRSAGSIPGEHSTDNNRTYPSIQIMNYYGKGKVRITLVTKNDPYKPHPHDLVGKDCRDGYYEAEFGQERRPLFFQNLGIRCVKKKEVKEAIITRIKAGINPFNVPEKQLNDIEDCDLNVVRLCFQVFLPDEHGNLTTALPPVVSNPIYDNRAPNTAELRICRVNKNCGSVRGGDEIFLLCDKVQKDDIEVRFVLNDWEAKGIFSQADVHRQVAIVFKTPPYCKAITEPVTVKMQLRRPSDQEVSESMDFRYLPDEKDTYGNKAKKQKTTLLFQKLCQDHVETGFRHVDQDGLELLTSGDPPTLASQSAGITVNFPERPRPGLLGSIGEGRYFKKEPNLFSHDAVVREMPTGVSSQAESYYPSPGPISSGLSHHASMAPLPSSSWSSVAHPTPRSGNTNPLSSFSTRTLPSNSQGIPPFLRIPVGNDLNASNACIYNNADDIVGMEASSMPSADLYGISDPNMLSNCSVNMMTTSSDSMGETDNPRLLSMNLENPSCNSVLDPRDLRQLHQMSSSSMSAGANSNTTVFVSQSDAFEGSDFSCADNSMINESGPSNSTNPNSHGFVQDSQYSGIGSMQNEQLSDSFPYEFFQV

Variants of: B1
Conditions: with ccdb1_human CCNDBP1, O95273
ccdb1_human CCNDBP1, O95273, sequence (O95273 whole entry): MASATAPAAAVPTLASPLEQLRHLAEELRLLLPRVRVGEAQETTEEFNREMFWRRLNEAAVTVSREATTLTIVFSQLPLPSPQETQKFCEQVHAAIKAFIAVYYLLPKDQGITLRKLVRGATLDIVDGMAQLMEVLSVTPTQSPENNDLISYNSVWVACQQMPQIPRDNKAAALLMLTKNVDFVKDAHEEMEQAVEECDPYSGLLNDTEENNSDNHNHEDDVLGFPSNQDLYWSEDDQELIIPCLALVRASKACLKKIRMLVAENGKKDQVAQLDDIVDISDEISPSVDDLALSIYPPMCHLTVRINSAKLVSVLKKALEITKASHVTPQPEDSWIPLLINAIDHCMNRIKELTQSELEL

Variant	effect of a mutation on the interaction
P649L	with no effect
M429T	with no effect

Variants of: B2
Conditions: with go45_human BLZF1, Q9H2G9

Variant	effect of a mutation on the interaction
V174A	disrupting interaction strength
R193Q	with no effect

Variants of: B3
Conditions: with baf_human BANF1, O75531

Variant	effect of a mutation on the interaction
S54F	with no effect
D72V	with no effect
G156S	with no effect
P183T	with no effect
R203H	with no effect

Variants of: B4
Conditions: with kifc3_human KIFC3, Q9BVG8

Variant	effect of a mutation on the interaction
K104T	disrupting interaction strength

Variants of: B5
Conditions: with rel_human REL

Variant	effect of a mutation on the interaction
V31L	disrupting interaction strength
